Holding throughout (experiment): IEDB peptide-MHC binding, purified MHC/competitive/radioactivity; ≥ and ≤ were set here for values at or beyond the usual limits of such assays
Common to all, as to conditions: source organism: Bordetella pertussis

Test [1] concerns the target HLA-B*44:03.
Test [2] has as its target HLA-B*57:01.
For test [3], the target named is HLA-A*02:01.
Test [4] deals with HLA-B*53:01.
The target in test [5] is HLA-B*07:02.

pIC50: −log10 of the molar value.

In the case of AAMQGAVVH, the negative-log IC50 (pIC50) in test [1] is at most 4.11.
Consider AAPAAHADW, for which, in test [2], the negative logarithm of the IC50 (pIC50) is 4.70.
With GLTDGVSRI, in test [3], the negative logarithm of the IC50 (pIC50) is 4.16.
For HSLYASYEY, the negative logarithm of the IC50 (pIC50) is 4.37 in test [4] and 6.93 in test [2].
Take IAHRTELRG: the negative logarithm of the IC50 (pIC50) in test [2] was 4.18.
For IENTAKLSG, in test [1], the pIC50 was 4.35.
With LNDSKITMG, the negative logarithm of the IC50 (pIC50) in test [4] is at most 4.11.
For the sequence LVYYESIAY, the pIC50 in test [4] was 4.92.
For RVTVSGGSL, the pIC50 in test [5] is 4.84.
As to SEAMAAWSE, in test [1], the negative-log IC50 (pIC50) is 5.12.
Regarding SPQPIRATV, the negative logarithm of the IC50 (pIC50) in test [5] was 6.83.
For the sequence WLTWLAILA, the pIC50 in test [3] was 4.40.

For the origin of these results see the Immune Epitope Database (IEDB).
